# B1: Histone deacetylase 3 (Homo sapiens), O15379 (parent)
# chain: MAKTVAYFYDPDVGNFHYGAGHPMKPHRLALTHSLVLHYGLYKKMIVFKPYQASQHDMCRFHSEDYIDFLQRVSPTNMQGFTKSLNAFNVGDDCPVFPGLFEFCSRYTGASLQGATQLNNKICDIAINWAGGLHHAKKFEASGFCYVNDIVIGILELLKYHPRVLYIDIDIHHGDGVQEAFYLTDRVMTVSFHKYGNYFFPGTGDMYEVGAESGRYYCLNVPLRDGIDDQSYKHLFQPVINQVVDFYQPTCIVLQCGADSLGCDRLGCFNLSIRGHGECVEYVKSFNIPLLVLGGGGYTVRNVARCWTYETSLLVEEAISEELPYSEYFEYFAPDFTLHPDVSTRIENQNSRQYLDQIRQTIFENLKMLNHAPSVQIHDVPADLLTYDRTDEADAEERGPEENYSRPEAPNEFYDGDHDNDKESDVEI
# partner: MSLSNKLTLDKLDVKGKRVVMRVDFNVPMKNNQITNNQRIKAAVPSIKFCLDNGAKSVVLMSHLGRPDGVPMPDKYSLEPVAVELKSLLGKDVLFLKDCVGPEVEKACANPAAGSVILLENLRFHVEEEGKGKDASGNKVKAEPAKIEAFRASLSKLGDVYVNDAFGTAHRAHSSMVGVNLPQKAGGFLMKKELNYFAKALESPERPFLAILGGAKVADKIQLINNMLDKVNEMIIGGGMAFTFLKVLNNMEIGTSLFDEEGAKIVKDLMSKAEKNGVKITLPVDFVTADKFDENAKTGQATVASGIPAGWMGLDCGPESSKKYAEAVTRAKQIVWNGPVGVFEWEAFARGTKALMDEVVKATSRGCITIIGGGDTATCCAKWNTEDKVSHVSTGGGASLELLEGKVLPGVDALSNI
# Variants of: B1
# Conditions: with pgk1_human PGK1, P00558
row,Variant,effect of a mutation on the interaction
1,MAKTVAYFYDPDVGNFHYGAGHPMKPHRLALTHSLVLHYGLYKKMIVFKPYQASQHDMCRFHSEDYIDFLQRVSPTNMQGFTKSLNAFNVGDDCPVFPGLFEFCSRYTGASLQGATQLNNKICDIAINWAGGLHHAKKFEASGFCYVNDIVIGILELLKYHPRVLYIDIDIHHGDGVQEAFYLTDRVMTVSFHKYGNYFFPGTGDMYEVGAESGRYYCLNVPLRDGIDDQSYKHLFQPVINQVVDFYQPTCIVLQCGADSLGCDRLGCFNLSIRGHGECVEYVKSFNIPLLVLGGGGYTVRNVARCWTYETSLLVEEAISEELPYSEYFEYFAPDFTLHPDVSTRIENQNSRQYLDQIRQTIFENLKMLNHAPSVQIHDVPADLLTYDRTDEADAEERGPEENYSRPEAPNEFYDGDHDNDKEADVEI [S424A],decreasing interaction strength

# Variants of: B1
# Conditions: with PGK1, P00558-1
row,Variant,effect of a mutation on the interaction
1,MAKTVAYFYDPDVGNFHYGAGHPMKPHRLALTHSLVLHYGLYKKMIVFKPYQASQHDMCRFHSEDYIDFLQRVSPTNMQGFTKSLNAFNVGDDCPVFPGLFEFCSRYTGASLQGATQLNNKICDIAINWAGGLHHAKKFEASGFCYVNDIVIGILELLKYHPRVLYIDIDIHHGDGVQEAFYLTDRVMTVSFHKYGNYFFPGTGDMYEVGAESGRYYCLNVPLRDGIDDQSYKHLFQPVINQVVDFYQPTCIVLQCGADSLGCDRLGCFNLSIRGHGECVEYVKSFNIPLLVLGGGGYTVRNVARCWTYETSLLVEEAISEELPYSEYFEYFAPDFTLHPDVSTRIENQNSRQYLDQIRQTIFENLKMLNHAPSVQIHDVPADLLTYDRTDEADAEERGPEENYSRPEAPNEFYDGDHDNDKEADVEI [S424A],decreasing interaction strength
